{"source": "patent US20160168253", "proteins": {"B1": {"name": "Neprilysin (R&D Systems, Cat. No 1182-ZNC) (protein)", "chain": "YDDGICKSSDCIKSAARLIQNMDATTEPCTDFFKYACGGWLKRNVIPETSSRYGNFDILRDELEVVLKDVLQEPKTEDIVAVQKAKALYRSCINESAIDSRGGEPLLKLLPDIYGWPVATENWEQKYGASWTAEKAIAQLNSKYGKKVLINLFVGTDDKNSVNHVIHIDQPRLGLPSRDYYECTGIYKEACTAYVDFMISVARLIRQEERLPIDENQLALEMNKVMELEKEIANATAKPEDRNDPMLLYNKMTLAQIQNNFSLEINGKPFSWLNFTNEIMSTVNISITNEEDVVVYAPEYLTKLKPILTKYSARDLQNLMSWRFIMDLVSSLSRTYKESRNAFRKALYGTTSETATWRRCANYVNGNMENAVGRLYVEAAFAGESKHVVEDLIAQIREVFIQTLDDLTWMDAETKKRAEEKALAIKERIGYPDDIVSNDNKLNNEYLELNYKEDEYFENIIQNLKFSQSKQLKKLREKVDKDEWISGAAVVNAFYSSGRNQIVFPAGILQPPFFSAQQSNSLNYGGIGMVIGHEITHGFDDNGRNFNKDGDLVDWWTQQSASNFKEQSQCMVYQYGNFSWDLAGGQHLNGINTLGENIADNGGLGQAYRAYQNYIKKNGEEKLLPGLDLNHKQLFFLNFAQVWCGTYRPEYAVNSIKTDVHSPGNFRIIGTLQNSAEFSEAFHCRKNSYMNPEKKCRVW"}}, "biological_target": "T1, peptide substrate MCA-RPPGFSAFK(Dnp)-OH (R&D Systems Cat. No. ES005)", "T1 chain": "RPPGFSAFK", "data": [{"protein": "B1", "values": [{"measurement": "Km [µM] (apparent Km, hydrolysis of fluorogenic peptide substrate)", "result": 3.2, "unit": "µM"}, {"measurement": "Vmax", "result": 2930, "unit": "s⁻¹"}]}]}
